{"source": "the nanobody polyreactivity screen of Harvey et al. (2022)"}
{"experiment": "yeast display, Sf9 membrane polyspecificity reagent, FACS + sequencing; frameworks hold sequencing errors", "how_it_was_run": "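Polyreactivity labels are assigned by the sorting gate from which each nanobody was recovered. The gates were low and high (top ~1%), set on anti-HA fluorescence for expression and streptavidin fluorescence for reagent binding. Before sorting, galactose-induced (36–48 hours) yeast display cells were stained for 1 hour at 4 °C with 10% biotinylated, detergent-solubilized Sf9 membrane reagent.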"}
{"sequence": "QVHLVESGGGLVQAGGSLRLSCAASGRTFSRYAMGWYRQAPGKERELVATITRGGSTNYADSVKGRFTISRDNAKNTVYLQMNSLKPEDTAVYYCNAASFRYQGTLNHFYYWGQGTQVTVSS", "polyreactivity (PSR sort gate)": "low polyreactivity"}
{"sequence": "QVHLVESGGGLVQAGGSLRLSCAASGRTFSRYPMGWYRQAPGKERELVAAIRGNSGNTYYAYSVKGRFTISRDNAKNTVYLQMNSLKPEDTAVYYCAKPFNIWGQGTQVTVSS", "polyreactivity (PSR sort gate)": "high polyreactivity"}
{"sequence": "QVHLVESGGGLVQAGGSLRLSCAASGRTFSTYAMGWYRQAPGTERELVAAISSGGGRTYYADSVKGRFTISRDNAKNTVYLQMNRLKPEDTAVYYCAADRYFRSSRSYEYWGQGTLVTVSS", "polyreactivity (PSR sort gate)": "low polyreactivity"}
{"sequence": "QVHLVESGGGLVQAGGSLRLSCAASGRTFWLNAMGWYRQAPGKERELVATISSSSGSTTYADSVKGRFTISRDNAKNTVYLQINSLKPEDTAVYYCAVYSHKKVRPEYDYWGQGTQVTVSS", "polyreactivity (PSR sort gate)": "low polyreactivity"}
{"sequence": "QVHLVESGGGLVQAGGSLRLSCAASGRTFYSYVMGWYRQAPGKERELVAAISSTGGTYADSVKGRFTISRDNAKNTVYLQINSLKPEETAVYYCAAATPTGYKRGGYWGQGTQVTVSS", "polyreactivity (PSR sort gate)": "low polyreactivity"}
{"sequence": "QVHLVESGGGLVQAGGSLRLSCAASGRTIAAYAMGWYRQAPGKERELVAAISRSGGSTYYADSVKGRFTISRDNAKNTVYLQMNSLKPEDTAVYYCAAQRQYGKFDYWGQGTQVTVSS", "polyreactivity (PSR sort gate)": "high polyreactivity"}
{"sequence": "QVHLVESGGGLVQAGGSLRLSCAASGRTIRLNVMGWYRQAPGKERELVAAITRSVGSTYYADSVKGRFTISRDYAKNTVYLQMNSLKPEDTAVYYCNAVRSRYYDDYDYWGQGTQVTVSS", "polyreactivity (PSR sort gate)": "high polyreactivity"}
{"sequence": "QVHLVESGGGLVQAGGSLRLSCAASGRTLVPNAMGWYRQAPGKERELVAAISRSGGSTYYADSLKGRFTISRDNAKNTVYLQMNSLKPEDTAVYYCAKDKRIFYRVGSDYWGQGTQVTVSS", "polyreactivity (PSR sort gate)": "low polyreactivity"}
{"sequence": "QVHLVESGGGLVQAGGSLRLSCAASGRTLYYYTMGWYRQAPGKERDLVAAIRWSTGSTYYADSVKGRFTISRDNAKNTVYLQMNSLKPEDTAVYYCNASRYQWAQSTEYDYWGQGTQVTVSS", "polyreactivity (PSR sort gate)": "high polyreactivity"}
{"sequence": "QVHLVESGGGLVQAGGSLRLSCAASGSICGHYAMGWYRQAPGKERELVANITLSDGRTYYADSVKGRFTISLDNAKNTVYFQMNSLKPEDTAVYYCAARYYSFSSPFDYWGQGNQVTVSS", "polyreactivity (PSR sort gate)": "high polyreactivity"}
{"sequence": "QVHLVESGGGLVQAGGSLRLSCAASGSIFFTYAMGWYRQAPGKETEWVAAISSGGSPYYADSVKGRFTISRDNANNTVYLQMNSLKPEDTEVYYCAARGYRLVPVDFSYWGQGTQVTVSS", "polyreactivity (PSR sort gate)": "low polyreactivity"}
{"sequence": "QVHLVESGGGLVQAGGSLRLSCAASGSIFGGYGMGWYRQAPGKEREMVAAITSGSSTYYADSVKGPFTISRDNAKNSVYFQLNSLKPEDTAVYYCAARPYPHSAYEGDYWGRGTQVTVSS", "polyreactivity (PSR sort gate)": "low polyreactivity"}
{"sequence": "QVHLVESGGGLVQAGGSLRLSCAASGSIFGYNAMGWYRQAPGKERELVAAISLTTGSTYYADSVKGRFTISRDNAKNTVYLQMNSLKPEDTAVYYCAIRGFYRGYGQAYGYWGQGTLVTVSS", "polyreactivity (PSR sort gate)": "high polyreactivity"}
{"sequence": "QVHLVESGGGLVQAGGSLRLSCAASGSIFHGYSMGWYRQAPGKERELVAAINSGDGSTYADSVKGRFTISRDNAKNTVYLQMNSLKPEDTAVYYCATDGTYYEHDYWGQATQVTVSS", "polyreactivity (PSR sort gate)": "low polyreactivity"}
{"sequence": "QVHLVESGGGLVQAGGSLRLSCAASGSIFPFNAMGWYRQAPGKERELVAAIRWSDGRTYYADSVKGRFTISRDNAKNTVYLQMNSLKPEDTAVYYCAAKSYWGQGTQVTVSS", "polyreactivity (PSR sort gate)": "high polyreactivity"}
{"sequence": "QVHLVESGGGLVQAGGSLRLSCAASGSIFQPYAMGWYRQAPGTERELVAAISSSGGSTTYADSVKGRFTISRDKAKNTVYLQMNSLKPEDTAVYYCAAESADDMGYWGQGTQVTVSS", "polyreactivity (PSR sort gate)": "low polyreactivity"}
{"sequence": "QVHLVESGGGLVQAGGSLRLSCAASGSIFRLYSMGWYRQAPGKERELVARITTGGSTNYADSVKGRFTISRDNAKNTVYLQMNSLKPEDTAVYYCNAGVWVTAQLGLQKYSYWGQGTQVTVSS", "polyreactivity (PSR sort gate)": "high polyreactivity"}
{"sequence": "QVHLVESGGGLVQAGGSLRLSCAASGSIFSRNAMGWYRQAPGKERELVAAISRGANTYYADSVKGRFTISRDNAKNTVYLQMNSLKPEDTAVYYCNAGSRSRYEGGYWGQGTQVTVSS", "polyreactivity (PSR sort gate)": "high polyreactivity"}
{"sequence": "QVHLVESGGGLVQAGGSLRLSCAASGSIFTQYAMGWYRQAPGKERELVARITGSGGRTYYADSVKGRFTISRDNAKNTVYLQMNSLKPEDTAVYYCNARLYTYGRHQGPDYNYWGQGTQVTVSS", "polyreactivity (PSR sort gate)": "high polyreactivity"}
{"sequence": "QVHLVESGGGLVQAGGSLRLSCAASGSIFTRYVMGWYRQAPGKERELVAAISGRGSSTYYADSVKGRFKISRDYAKNTVYLQMNSLKPEDTAVYYCAAEIVVFYSEGQRNTFYYWGQGTQVTVSS", "polyreactivity (PSR sort gate)": "high polyreactivity"}
{"sequence": "QVHLVESGGGLVQAGGSLRLSCAASGSIFVPYAMGWYRQAPRKERELVAAINHGGGRTYADSVKGRFTISRDNAKNSVYLQMNSLKPDDTAVYYCAADGADKIGYYSYYYWGQGTQVTVSS", "polyreactivity (PSR sort gate)": "low polyreactivity"}
{"sequence": "QVHLVESGGGLVQAGGSLRLSCAASGSIFYYNAMGWYRQAPGKERELVAAITSGDSTNYADSVKGRFTISRDNAKNTVYLQMNSLKPEDTAVYYCNTDGLVRNGPFYSWGQGTQVTVSS", "polyreactivity (PSR sort gate)": "low polyreactivity"}
{"sequence": "QVHLVESGGGLVQAGGSLRLSCAASGSIFYYNTMGWYRQAPGKERELVAAIRFDDGSTYYADSVKGRFTISRDNAKNTVYLQMNSLKPEDTAVYYCAADWIVVSEFGLDYHMDYWGQGTQVTVSS", "polyreactivity (PSR sort gate)": "low polyreactivity"}
{"sequence": "QVHLVESGGGLVQAGGSLRLSCAASGSIIKRNAMGWYRQAPGKERELVATISSGDGSTRYADSVKGRFTISRDNAKNTVYLQMNSLKPEDSAVYYCAAASAAGYDYWGQGTQVTVSS", "polyreactivity (PSR sort gate)": "low polyreactivity"}
{"sequence": "QVHLVESGGGLVQAGGSLRLSCAASGSILAGYAMGWYRQAPGKEWELVAAISSGGRTYYADSVKGRFTISRDNAKNTVYLQMNSLKPEDTAVYYSAAGKYDGSRRMYYWGQGTQVTVSS", "polyreactivity (PSR sort gate)": "high polyreactivity"}
{"sequence": "QVHLVESGGGLVQAGGSLRLSCAASGSISVANAMGWYRQAPGKERELVAAITDSGDDTYYADSVKGRFTISRDNAKNTVYLQMNSLKPEDTAVYYCAVEAWSVPPYDYWGQGTQVTVSS", "polyreactivity (PSR sort gate)": "low polyreactivity"}
{"sequence": "QVHLVESGGGLVQAGGSLRLSCAASGSIYVNTMGWYRQAPGKDRELVAGISRSTGRTYYADSVKGRFTISRDNAKNTVYLQMNSLKPEDTAVYYCNTVPWRRWGYDYWGQGTQVTVSS", "polyreactivity (PSR sort gate)": "high polyreactivity"}
{"sequence": "QVHLVESGGGLVQAGGSLRLSCAASGSTFDTYALGWYRQAPGKEWELVAAINTGGRTKYADSVKGRFTISRDNAKNTVYLQMNSLKPVDTGVYYCAARLSTTGVAYGYWGLGTQVTVSS", "polyreactivity (PSR sort gate)": "high polyreactivity"}
{"sequence": "QVHLVESGGGLVQAGGSLRLSCAASGSTFEQYAMGWYIQAPGKERELVAAISGSGTRTYYADSVKGRFTISRDNAKNTVYLQMNSLKPEDTAVYSCRTGSGEYDYWGQGTQVTVSS", "polyreactivity (PSR sort gate)": "high polyreactivity"}
{"sequence": "QVHLVESGGGLVQAGGSLRLSCAASGSTFGTYAMGWYRQAPGKERELVAAISNSGGSTYYADSVKGRFTISRDYAKNTVYLQMNSLKPEDTAVYYCNTDGLVRNGPFYSWGQGTQVTVSS", "polyreactivity (PSR sort gate)": "low polyreactivity"}
{"sequence": "QVHLVESGGGLVQAGGSLRLSCAASGSTFQLYAMGWYRQAPGKERELVAAITSSAGRTYYADSVKGRFTISRDNAKNTVYLQMNSLKPEDTAVYYCAKDGSFTFWGQGTQVTVSS", "polyreactivity (PSR sort gate)": "low polyreactivity"}
{"sequence": "QVHLVESGGGLVQAGGSLRLSCAASGSTFRSYVMGWSRQAPGKERELVAAISRGGTTYYADSVKGRFTISRDNAKNTVYLQMNSLKPEDTPVYYCAATRTTRFYTGSKMNYWGQGTQVTVSS", "polyreactivity (PSR sort gate)": "high polyreactivity"}
{"sequence": "QVHLVESGGGLVQAGGSLRLSCAASGSTFTRNVMGWYRQAPGKERELVASISRSGGRTYYADSVKGRFTISRDNAKNTVYLQMNSLKPEDTAVYYCAAKSFYYLDPYDYWGQGTQVTVSS", "polyreactivity (PSR sort gate)": "high polyreactivity"}
{"sequence": "QVHLVESGGGLVQAGGSLRLSCAASGSTFVNYTMGWYIQAPGKERELVAITIGAGRTYYADSVKGRFTISRDNAKNTVYLPMNSLKPEDTAVYYCAVRLYANSGRFDYWGQGTQVTVSS", "polyreactivity (PSR sort gate)": "low polyreactivity"}
{"sequence": "QVHLVESGGGLVQAGGSLRLSCAASGSTFWKYVMGWYILAPGKERELVAAITSRGGSTYADSVKGRFTISRDNAKNTVYLQMNSLKTEDTAVYYCAATKFWYYGYDYWGQGTQVTVSS", "polyreactivity (PSR sort gate)": "low polyreactivity"}
{"sequence": "QVHLVESGGGLVQAGGSLRLSCAASGSTFYAYTMGWYRQAPGKERELVAAISSRGGRTYYADSVKGRFTISRDNAKNTVYLQMNSLKPEDTAVYYCARTSWSGVSYDYWGQGTQVTVSS", "polyreactivity (PSR sort gate)": "high polyreactivity"}
{"sequence": "QVHLVESGGGLVQAGGSLRLSCAASGSTFYPYAMGWYRQAPGKEREVVAGISRSGGTTYYADSVKGRFTISRDNANNTVYLQMNSLKPEDTAVYYCAVQIPYVYWSYDYWGQGTQVTVSS", "polyreactivity (PSR sort gate)": "low polyreactivity"}
{"sequence": "QVHLVESGGGLVQAGGSLRLSCAASGSTFYYNAIGWYRQAPGKERELVARISRSGGSTYADSVKGRFTISRDKAKNTFYLQMNSLKPEDTAVYYCNADAYGTPEFTSYAVRYDYWGQGTQVTVSS", "polyreactivity (PSR sort gate)": "low polyreactivity"}
{"sequence": "QVHLVESGGGLVQAGGSLRLSCAASGSTFYYYVMGWYRQAPGKETELVAAINSGGSTYYADSVKGRFTISRDNAKNTVYLQMNSLKPEDTAVYYCAKSWSYWYQYYYSGQGTQVTVSS", "polyreactivity (PSR sort gate)": "low polyreactivity"}
{"sequence": "QVHLVESGGGLVQAGGSLRLSCAASGSTIDRYAMGWYRQAPGKERELVASISKRGGSTYYADSVKGRFTISRDNAKNTVYLQMNSLKPEDTAVYYCAAKWASQYDYWGQGTQVTVSS", "polyreactivity (PSR sort gate)": "high polyreactivity"}
{"sequence": "QVHLVESGGGLVQAGGSLRLSCAASGSTLGYYAMGWYRQAPGKERELVASIRWDTASTYYADSVKGRFTISRDNAKNTVYLQMNSLKPEDTAVYYCNAGRPRFYRCRWYYYGYGYWGQGTQVTVSS", "polyreactivity (PSR sort gate)": "high polyreactivity"}
{"sequence": "QVHLVESGGGLVQAGGSLRLSCAASGSTLSFYARGWYRQAPGKERELVAAISSSGGSTYYADSVKGRFTISRDNAKNTVYLQMNSLKPEDTAVYYCNAVRRNYGYDYWGQGTQVTVSS", "polyreactivity (PSR sort gate)": "high polyreactivity"}
{"sequence": "QVHLVESGGGLVQAGGSLRLSCAASGSTVYNAMGWYRQAPGKERELVAVITDSDGSTYYADSVKGRFTISRDNAKNTVYLQMNSLKPEDTAVYYCAVTAIALYYSSGYYWGQGTQVTVSS", "polyreactivity (PSR sort gate)": "low polyreactivity"}
